Experimental findings from publication PMC9253114, “Structures and gating mechanisms of human bestrophin anion channels” (Nature Communications, 2022) are described below.

Data set [1] deals with the molecule itself. The experiment in a line: cryo-EM structure; single-particle cryo-EM of purified truncated channel (residues 1-345) in GDN, in the presence of 5 mM Ca2+; C5 symmetry refinement.
Data set [2] deals with the molecule itself. The experiment in a line: cryo-EM structure; single-particle cryo-EM of purified channel in GDN (200 mM NaCl, 40 mM HEPES pH 7.8, 0.005% GDN); without Ca2+ (EGTA) or after a 30 s spike of 1 uM or 5 mM Ca2+; C5 symmetry refinement.

Broadly, the stoichiometry N is a count of units in the complex or per binding partner.

B1: bBest2_(1–345) (domain or fragment, bovine, UniProt E1BF86 1-345, looked up)
chain: MTVTYTARVAKARFGGFSKLLLLWRGSIYKLLWRELLCFLGLFMALSAAYRFVLTEEQKRYFEKLVLYCDRYASLIPVSFVLGFYVTLVVHRWWNQYLSMPLTDALMCVVVGTVHGHDERGRLYRRTLMRYAGLSGVLILRSVSTAVFKRFPTIDHVVEAGFMTREERKKFENLNSSYNKYWVPCVWFCNLAAQARREGRIRDNGAFKLLLEELNVFRSKCGMLFHYDWISVPLVYTQVVTIAVYSYFLACLIGRQFLDPAQGYKDHDLDLCVPIFTLLQFFFYAGWLKVAEQLINPFGEDDDDFETNFLIDRCFQVSMLAVDEMYDDLAMLEKDLYWDAAEARA
notes: PDB 6VX7 is the cited earlier bBest2 structure, another construct; also called bBEST2 345; AS truncated bovine Best2; source: HEK293-F cells, Bacmam system, purified (GDN extraction, Ni-NTA, TEV cleavage, gel filtration)
On to B1, for which the binding result in data set [1] is “binds”.

B2: wild-type human bestrophin-2 (natural protein, UniProt Q8NFU1 1-509, looked up)
chain: MTVTYTARVANARFGGFSQLLLLWRGSIYKLLWRELLCFLGFYMALSAAYRFVLTEGQKRYFEKLVIYCDQYASLIPVSFVLGFYVTLVVNRWWSQYLCMPLPDALMCVVAGTVHGRDDRGRLYRRTLMRYAGLSAVLILRSVSTAVFKRFPTIDHVVEAGFMTREERKKFENLNSSYNKYWVPCVWFSNLAAQARREGRIRDNSALKLLLEELNVFRGKCGMLFHYDWISVPLVYTQVVTIALYSYFLACLIGRQFLDPAQGYKDHDLDLCVPIFTLLQFFFYAGWLKVAEQLINPFGEDDDDFETNFLIDRNFQVSMLAVDEMYDDLAVLEKDLYWDAAEARAPYTAATVFQLRQPSFQGSTFDITLAKEDMQFQRLDGLDGPMGEAPGDFLQRLLPAGAGMVAGGPLGRRLSFLLRKNSCVSEASTGASCSCAVVPEGAAPECSCGDPLLDPGLPEPEAPPPAGPEPLTLIPGPVEPFSIVTMPGPRGPAPPWLPSPIGEEEENLA
notes: human bestrophin-2 (hBest2), wild type; also called hBest2; WT hBest2; source: HEK293-F cells, Bacmam system, purified (GDN extraction, Ni-NTA, TEV cleavage, gel filtration)
As for B2, in data set [2], the “stoichiometry N” value turned out to be 5.

B3: wild-type human bestrophin-1 (natural protein)
chain: MTITYTSQVANARLGSFSRLLLCWRGSIYKLLYGEFLIFLLCYYIIRFIYRLALTEEQQLMFEKLTLYCDSYIQLIPISFVLGFYVTLVVTRWWNQYENLPWPDRLMSLVSGFVEGKDEQGRLLRRTLIRYANLGNVLILRSVSTAVYKRFPSAQHLVQAGFMTPAEHKQLEKLSLPHNMFWVPWVWFANLSMKAWLGGRIRDPILLQSLLNEMNTLRTQCGHLYAYDWISIPLVYTQVVTVAVYSFFLTCLVGRQFLNPAKAYPGHELDLVVPVFTFLQFFFYVGWLKVAEQLINPFGEDDDDFETNWIVDRNLQVSLLAVDEMHQDLPRMEPDMYWNKPEPQPPYTAASAQFRRASFMGSTFNISLNKEEMEFQPNQEDEEDAHAGIIGRFLGLQSHDHHPPRANSRTKLLWPKRESLLHEGLPKNHKAAKQNVRGQEDNKAWKLKAVDAFKSAPLYQRPGYYSAPQTPLSPTPMFFPLEPSAPSKLHSVTGIDTKDKSLKTVSSGAKKSFELLSESDGALMEHPEVSQVRRKTVEFNLTDMPEIPENHLKEPLEQSPTNIHTTLKDHMDPYWALENRDEAHS
notes: human bestrophin-1 (hBest1), wild type; also called hBest1; WT hBest1; source: HEK293-F cells, Bacmam system, purified (GDN extraction, Ni-NTA, TEV cleavage, gel filtration)
For B3, the “stoichiometry N” value in data set [2] was found to be 5.

B4: hBest1_(1–345) (domain or fragment, human, UniProt O76090 1-345, looked up)
chain: MTITYTSQVANARLGSFSRLLLCWRGSIYKLLYGEFLIFLLCYYIIRFIYRLALTEEQQLMFEKLTLYCDSYIQLIPISFVLGFYVTLVVTRWWNQYENLPWPDRLMSLVSGFVEGKDEQGRLLRRTLIRYANLGNVLILRSVSTAVYKRFPSAQHLVQAGFMTPAEHKQLEKLSLPHNMFWVPWVWFANLSMKAWLGGRIRDPILLQSLLNEMNTLRTQCGHLYAYDWISIPLVYTQVVTVAVYSFFLTCLVGRQFLNPAKAYPGHELDLVVPVFTFLQFFFYVGWLKVAEQLINPFGEDDDDFETNWIVDRNLQVSLLAVDEMHQDLPRMEPDMYWNKPEPQP
notes: also called hBEST1 345; AS truncated hBest1; source: HEK293-F cells, Bacmam system, purified (GDN extraction, Ni-NTA, TEV cleavage, gel filtration)
In the case of B4, the binding result in data set [1] is listed as “binds”.
